From US20150307603A1 (MODIQUEST B V, published 2015)
Non-standard residues stand in square brackets, D forms with d. No end group written: not given here. Cit = NC(=O)NCCC[C@H](N)C(=O)O

Experiments:
[1] = molecular target: T1, peptide no. 9 (human histone 2A) (human, also: biotin-labelled); experiment: ELISA, Ab 10 ug/well
T1 construct: also called peptide 9
T1 peptide: DNKKT[Cit]IIPRHL
Protocol: (§1) Biotin and citrulline-containing peptides derived from histone 2A were immobilized on NEUTRAVIDIN®-coated 96-well ELISA plates (0.3 μg/well). CFC-1 and CFC-0 were coated at the same concentration and served as positive and negative controls, respectively, for specific anti-citrulline reactivity and as coating controls. Non-coated wells were used to test for aspecific binding of the antibodies. […] Detection of bound anti-citrulline antibodies was performed by incubating the wells with rabbit anti-human HRP (1:2000) for 1 hour at RT followed by incubation with TMB substrate. The resulting OD (y-axis) is a measure for antibody binding.

CFC-1 [2] = molecular target: T2, CFC-1; experiment: ELISA, Ab 10 ug/well
T2 construct: Positive control for anti-citrulline reactivity; also called cfc1 XG; Cfc1-peptide
Protocol: as §1

[3] = molecular target: T3, peptide no. 8 (human histone 2A) (human, also: biotin-labelled); experiment: ELISA, Ab 10 ug/well
T3 construct: also called peptide 8
T3 peptide: AGNAA[Cit]DNKKTR
Protocol: as §1

[4] = molecular target: T4, peptide no. 12 (human histone 2A) (human, also: biotin-labelled); experiment: ELISA, Ab 10 ug/well
T4 construct: also called peptide 12
T4 peptide: NKLLG[Cit]VTIAQG
Protocol: as §1

[5] = molecular target: T5, peptide no. 2 (human histone 2A) (human, also: biotin-labelled); experiment: ELISA, Ab 10 ug/well
T5 construct: also called peptide 2
T5 peptide: AKAKS[Cit]SSRAGL
Protocol: as §1

[6] = molecular target: T6, peptide no. 1 (human histone 2A) (human, also: biotin-labelled); experiment: ELISA, Ab 10 ug/well
T6 construct: also called peptide 1; AAASGXGKQGGK
T6 peptide: AAASG[Cit]GKQGGK
Protocol: as §1

[7] = molecular target: T7, peptide no. 7 (human histone 2A) (human, also: biotin-labelled); experiment: ELISA, Ab 10 ug/well
T7 construct: also called peptide 7
T7 peptide: GNYSE[Cit]VGAGAP
Protocol: as §1

[8] = molecular target: T8, peptide no. 4 (human histone 2A) (human, also: biotin-labelled); experiment: ELISA, Ab 10 ug/well
T8 construct: also called peptide 4
T8 peptide: QFPVG[Cit]VHRLLR
Protocol: as §1

[9] = molecular target: T9, peptide no. 11 (human histone 2A) (human, also: biotin-labelled); experiment: ELISA, Ab 10 ug/well
T9 construct: also called peptide 11
T9 peptide: LQLAI[Cit]NDEELN
Protocol: as §1

[10] = molecular target: T10, peptide no. 5 (human histone 2A) (human, also: biotin-labelled); experiment: ELISA, Ab 10 ug/well
T10 construct: also called peptide 5
T10 peptide: VGRVH[Cit]LLRKGN
Protocol: as §1

[11] = molecular target: T11, peptide no. 10 (human histone 2A) (human, also: biotin-labelled); experiment: ELISA, Ab 10 ug/well
T11 construct: also called peptide 10
T11 peptide: TRIIP[Cit]HLQLAI
Protocol: as §1

[12] = molecular target: T12, peptide no. 3 (human histone 2A) (human, also: biotin-labelled); experiment: ELISA, Ab 10 ug/well
T12 construct: also called peptide 3
T12 peptide: KSRSS[Cit]AGLQFP
Protocol: as §1

[13] = molecular target: T13, peptide no. 6 (human histone 2A) (human, also: biotin-labelled); experiment: ELISA, Ab 10 ug/well
T13 construct: also called peptide 6
T13 peptide: VHRLL[Cit]KGNYSE
Protocol: as §1

CFC-1 [14] = molecular target: T2, CFC-1; experiment: ELISA, Ab 0.0032 ug/well
Protocol: as §1, with “fibrinogen and vimentin” for “histone 2A”
(§2) Biotin-labeled and citrulline-containing fibrinogen and vimentin peptides (Table 5) were also tested for reactivity with the therapeutic antibodies. Peptides were coated on 96-well NEUTRAVIDIN®-ELISA plates.

msFibβ XG = molecular target: T14, msFibβ XG (mouse, also: biotin-labelled); experiment: ELISA, Ab 0.0032 ug/well
T14 construct: also called mouse fibrinogen β peptide
T14 peptide: EPTDSLDA[Cit]GHRPVDRR
Protocol: as §1, with “fibrinogen and vimentin” for “histone 2A”
as §2

huFibα XH = molecular target: T15, huFibα XH (human, X at position 15 = citrulline; biotin-labelled); experiment: ELISA, Ab 0.0032 ug/well
T15 peptide: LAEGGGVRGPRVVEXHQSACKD
Protocol: as §1, with “fibrinogen and vimentin” for “histone 2A”
as §2

msVim XS/XL = molecular target: T16, msVim XS/XL (mouse, also: biotin-labelled); experiment: ELISA, Ab 0.0032 ug/well
T16 construct: also called mouse vimentin peptide
T16 peptide: YVT[Cit]SSAV[Cit]L[Cit]SSVP
Protocol: as §1, with “fibrinogen and vimentin” for “histone 2A”
as §2

huFibα XG = molecular target: T17, huFibα XG (human, X at position 8 = citrulline; biotin-labelled); experiment: ELISA, Ab 0.0032 ug/well
T17 peptide: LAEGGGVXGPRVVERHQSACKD
Protocol: as §1, with “fibrinogen and vimentin” for “histone 2A”
as §2

[15] = molecular target: T1, peptide no. 9 (human histone 2A); experiment: ELISA, Ab 0.000128 ug/well
Protocol: as §1

CFC-1 [16] = molecular target: T2, CFC-1; experiment: ELISA, Ab 0.000128 ug/well
Protocol: as §1

[17] = molecular target: T3, peptide no. 8 (human histone 2A); experiment: ELISA, Ab 0.000128 ug/well
Protocol: as §1

[18] = molecular target: T5, peptide no. 2 (human histone 2A); experiment: ELISA, Ab 0.000128 ug/well
Protocol: as §1

[19] = molecular target: T6, peptide no. 1 (human histone 2A); experiment: ELISA, Ab 0.000128 ug/well
Protocol: as §1

[20] = molecular target: T9, peptide no. 11 (human histone 2A); experiment: ELISA, Ab 0.000128 ug/well
Protocol: as §1

[21] = molecular target: T10, peptide no. 5 (human histone 2A); experiment: ELISA, Ab 0.000128 ug/well
Protocol: as §1

[22] = molecular target: T11, peptide no. 10 (human histone 2A); experiment: ELISA, Ab 0.000128 ug/well
Protocol: as §1

[23] = molecular target: T12, peptide no. 3 (human histone 2A); experiment: ELISA, Ab 0.000128 ug/well
Protocol: as §1

[24] = molecular target: T13, peptide no. 6 (human histone 2A); experiment: ELISA, Ab 0.000128 ug/well
Protocol: as §1

B1: RhmAb2.102 (antibody, human IgG1, lambda)
heavy: not shown
light: QSVLTQPPSMSAAPGQKVTISCSGSSSNIGNNYVSWYQQVPGTAPKLLIYDDNKRPSGIPGRFSGSKSATSATLGITGLQAGDEADYYCGSWDDNLSVVLFGGGTKLTVLGQPKAAPSVTLFPPSSEELQANKATLVCLISDFYPGAVTVAWKADSSPVKAGVETTTPSKQSNNKYAASSYLSLTPEQWKSHRSYSCQVTHEGSTVEKTVAPTECS
notes: Human IgG1 lambda; also called Rhm2.102
OD [1]: 0.09 OD450
OD (CFC-1 [2]): 3.27 OD450
OD [3]: 0.082 OD450
OD [4]: 0.083 OD450
OD [5]: 0.552 OD450
OD [6]: 3.11 OD450
OD [7]: 0.08 OD450
OD [8]: 2.06 OD450
OD [9]: 0.088 OD450
OD [10]: 0.239 OD450
OD [11]: 0.091 OD450
OD [12]: 0.619 OD450
OD [13]: 1.41 OD450
OD (CFC-1 [14]): 0.506 OD450
OD (msFibβ XG): 0.12 OD450
OD (huFibα XH): 0.123 OD450
OD (msVim XS/XL): 0.142 OD450
OD (huFibα XG): 0.125 OD450
OD [15]: 0.055 OD450
OD (CFC-1 [16]): 0.749 OD450
OD [17]: 0.055 OD450
OD [18]: 0.075 OD450
OD [19]: 0.128 OD450
OD [20]: 0.059 OD450
OD [21]: 0.059 OD450
OD [22]: 0.057 OD450
OD [23]: 0.063 OD450
OD [24]: 0.054 OD450
